From the supplement of paper PMC10065799, “High-throughput profiling of sequence recognition by tyrosine kinases and SH2 domains using bacterial peptide display” (eLife, 2023)

How the values were obtained:
Jak2 = Jak2 (UniProt O60674); test: phosphorylation enrichment, bacterial display (enrichment ratio); higher = better substrate or ligand; peptides without Tyr show the background
Fer (mouse) = test: as above
Fyn = Fyn (UniProt P06241); test: as above
AncSZ = test: as above
MERTK = MERTK (UniProt Q12866); test: as above
c-Abl (mouse) = test: as above
Hck = Hck (UniProt P08631); test: as above
c-Src = test: as above
Fes = Fes (UniProt P07332); test: as above
EPHB1 = EPHB1 (UniProt P54762); test: as above
FGFR1 = FGFR1 (UniProt P11362); test: as above
FGFR3 = FGFR3 (UniProt P22607); test: as above
EPHB2 = EPHB2 (UniProt P29323); test: as above
Grb2 SH2 = Grb2 SH2 (UniProt P62993); test: SH2 binding enrichment of the phosphorylated peptide, bacterial display (enrichment ratio); higher = better substrate or ligand; peptides without Tyr show the background
SHP2-C SH2 = test: as above
c-Src SH2 = test: as above
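Wherever SH2 binding enrichment of the phosphorylated peptide, bacterial display is given: peptide library displayed on the E. coli surface as eCPX fusions, selected cells deep-sequenced, score is each peptide's frequency after selection divided by its frequency in the input.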
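Wherever phosphorylation enrichment, bacterial display is given: 11-residue human phosphosite peptides and single-mutation variants displayed on the E. coli surface, counted by deep sequencing, each peptide's frequency after selection divided by its frequency in the unselected input library; frequency after pTyr selection over input frequency; kinase dosed for 20-30% of maximal phosphorylation in three min.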

Chain of EPHB1 (P54762 whole entry, looked up): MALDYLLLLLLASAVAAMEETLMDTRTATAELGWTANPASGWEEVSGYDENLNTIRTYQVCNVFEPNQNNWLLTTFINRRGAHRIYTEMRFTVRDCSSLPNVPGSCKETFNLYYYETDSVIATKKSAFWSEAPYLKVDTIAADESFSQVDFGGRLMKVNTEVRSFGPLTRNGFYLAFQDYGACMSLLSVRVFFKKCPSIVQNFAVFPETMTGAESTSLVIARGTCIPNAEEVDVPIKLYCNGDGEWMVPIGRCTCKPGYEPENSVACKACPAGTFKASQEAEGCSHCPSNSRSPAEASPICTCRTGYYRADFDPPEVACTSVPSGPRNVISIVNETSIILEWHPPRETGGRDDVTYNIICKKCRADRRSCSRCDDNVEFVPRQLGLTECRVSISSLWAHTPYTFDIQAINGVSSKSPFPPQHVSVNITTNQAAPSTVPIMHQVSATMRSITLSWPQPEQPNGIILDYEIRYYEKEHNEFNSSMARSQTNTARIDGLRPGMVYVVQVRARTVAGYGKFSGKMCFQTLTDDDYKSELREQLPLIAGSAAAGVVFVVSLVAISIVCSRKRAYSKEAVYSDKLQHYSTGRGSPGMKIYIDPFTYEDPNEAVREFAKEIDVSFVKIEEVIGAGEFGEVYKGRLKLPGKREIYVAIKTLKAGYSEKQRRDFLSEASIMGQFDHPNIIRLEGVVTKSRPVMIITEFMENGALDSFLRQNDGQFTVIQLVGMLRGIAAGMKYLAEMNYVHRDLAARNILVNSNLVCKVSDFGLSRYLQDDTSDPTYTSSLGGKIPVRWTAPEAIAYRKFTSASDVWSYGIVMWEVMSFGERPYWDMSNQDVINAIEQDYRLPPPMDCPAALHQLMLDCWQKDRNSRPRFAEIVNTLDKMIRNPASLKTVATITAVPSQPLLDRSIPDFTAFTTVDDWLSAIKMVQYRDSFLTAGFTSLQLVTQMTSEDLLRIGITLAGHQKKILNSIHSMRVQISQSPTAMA
Chain of Grb2 SH2 (P62993 whole entry, looked up): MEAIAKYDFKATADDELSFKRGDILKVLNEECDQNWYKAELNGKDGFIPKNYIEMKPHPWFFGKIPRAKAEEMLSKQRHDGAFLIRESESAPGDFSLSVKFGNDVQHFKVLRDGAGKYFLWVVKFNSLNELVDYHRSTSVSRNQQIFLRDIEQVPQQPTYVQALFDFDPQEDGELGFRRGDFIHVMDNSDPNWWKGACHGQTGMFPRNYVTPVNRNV
Chain of FGFR1 (P11362 whole entry, looked up): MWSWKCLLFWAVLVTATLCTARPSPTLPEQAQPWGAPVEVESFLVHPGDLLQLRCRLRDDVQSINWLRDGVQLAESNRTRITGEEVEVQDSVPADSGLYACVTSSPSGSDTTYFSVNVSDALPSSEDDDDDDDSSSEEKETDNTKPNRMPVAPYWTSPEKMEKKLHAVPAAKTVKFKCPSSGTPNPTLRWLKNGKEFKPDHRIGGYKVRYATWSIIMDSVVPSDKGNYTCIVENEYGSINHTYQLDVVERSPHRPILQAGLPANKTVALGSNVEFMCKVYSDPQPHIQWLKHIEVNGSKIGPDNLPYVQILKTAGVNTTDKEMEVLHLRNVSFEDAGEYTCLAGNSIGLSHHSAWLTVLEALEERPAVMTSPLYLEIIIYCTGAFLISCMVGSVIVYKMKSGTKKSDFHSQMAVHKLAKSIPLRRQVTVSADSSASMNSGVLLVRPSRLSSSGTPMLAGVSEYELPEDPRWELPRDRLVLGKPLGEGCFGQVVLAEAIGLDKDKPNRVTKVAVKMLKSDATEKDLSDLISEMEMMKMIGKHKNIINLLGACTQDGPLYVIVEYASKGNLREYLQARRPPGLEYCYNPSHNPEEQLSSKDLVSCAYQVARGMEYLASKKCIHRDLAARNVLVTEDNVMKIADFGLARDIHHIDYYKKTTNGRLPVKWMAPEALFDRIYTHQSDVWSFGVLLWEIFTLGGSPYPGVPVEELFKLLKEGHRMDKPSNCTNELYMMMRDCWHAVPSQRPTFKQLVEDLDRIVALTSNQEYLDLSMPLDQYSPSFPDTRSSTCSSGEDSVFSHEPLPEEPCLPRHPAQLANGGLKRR
Chain of Fes (P07332 whole entry, looked up): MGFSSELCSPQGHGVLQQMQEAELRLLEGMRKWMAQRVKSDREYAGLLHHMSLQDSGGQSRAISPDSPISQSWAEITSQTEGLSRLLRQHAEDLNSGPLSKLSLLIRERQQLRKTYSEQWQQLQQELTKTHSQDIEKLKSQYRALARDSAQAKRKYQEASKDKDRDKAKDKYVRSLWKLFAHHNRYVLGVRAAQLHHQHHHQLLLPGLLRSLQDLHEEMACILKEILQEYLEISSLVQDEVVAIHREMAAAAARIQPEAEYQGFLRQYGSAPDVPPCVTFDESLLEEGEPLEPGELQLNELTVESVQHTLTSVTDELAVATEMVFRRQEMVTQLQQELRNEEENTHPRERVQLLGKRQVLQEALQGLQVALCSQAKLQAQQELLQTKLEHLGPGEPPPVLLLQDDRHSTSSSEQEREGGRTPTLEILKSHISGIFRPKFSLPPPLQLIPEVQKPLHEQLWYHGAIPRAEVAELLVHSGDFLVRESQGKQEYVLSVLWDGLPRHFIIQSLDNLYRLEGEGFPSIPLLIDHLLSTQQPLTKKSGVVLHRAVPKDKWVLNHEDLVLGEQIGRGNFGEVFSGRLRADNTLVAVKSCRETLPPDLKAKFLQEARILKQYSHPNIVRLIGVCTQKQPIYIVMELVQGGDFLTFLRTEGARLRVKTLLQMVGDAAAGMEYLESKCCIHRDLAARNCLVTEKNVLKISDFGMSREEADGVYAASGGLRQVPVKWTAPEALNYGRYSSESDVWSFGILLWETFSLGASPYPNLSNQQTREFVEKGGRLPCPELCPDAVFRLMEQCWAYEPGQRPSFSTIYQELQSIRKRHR
Chain of Jak2 (O60674 whole entry, looked up): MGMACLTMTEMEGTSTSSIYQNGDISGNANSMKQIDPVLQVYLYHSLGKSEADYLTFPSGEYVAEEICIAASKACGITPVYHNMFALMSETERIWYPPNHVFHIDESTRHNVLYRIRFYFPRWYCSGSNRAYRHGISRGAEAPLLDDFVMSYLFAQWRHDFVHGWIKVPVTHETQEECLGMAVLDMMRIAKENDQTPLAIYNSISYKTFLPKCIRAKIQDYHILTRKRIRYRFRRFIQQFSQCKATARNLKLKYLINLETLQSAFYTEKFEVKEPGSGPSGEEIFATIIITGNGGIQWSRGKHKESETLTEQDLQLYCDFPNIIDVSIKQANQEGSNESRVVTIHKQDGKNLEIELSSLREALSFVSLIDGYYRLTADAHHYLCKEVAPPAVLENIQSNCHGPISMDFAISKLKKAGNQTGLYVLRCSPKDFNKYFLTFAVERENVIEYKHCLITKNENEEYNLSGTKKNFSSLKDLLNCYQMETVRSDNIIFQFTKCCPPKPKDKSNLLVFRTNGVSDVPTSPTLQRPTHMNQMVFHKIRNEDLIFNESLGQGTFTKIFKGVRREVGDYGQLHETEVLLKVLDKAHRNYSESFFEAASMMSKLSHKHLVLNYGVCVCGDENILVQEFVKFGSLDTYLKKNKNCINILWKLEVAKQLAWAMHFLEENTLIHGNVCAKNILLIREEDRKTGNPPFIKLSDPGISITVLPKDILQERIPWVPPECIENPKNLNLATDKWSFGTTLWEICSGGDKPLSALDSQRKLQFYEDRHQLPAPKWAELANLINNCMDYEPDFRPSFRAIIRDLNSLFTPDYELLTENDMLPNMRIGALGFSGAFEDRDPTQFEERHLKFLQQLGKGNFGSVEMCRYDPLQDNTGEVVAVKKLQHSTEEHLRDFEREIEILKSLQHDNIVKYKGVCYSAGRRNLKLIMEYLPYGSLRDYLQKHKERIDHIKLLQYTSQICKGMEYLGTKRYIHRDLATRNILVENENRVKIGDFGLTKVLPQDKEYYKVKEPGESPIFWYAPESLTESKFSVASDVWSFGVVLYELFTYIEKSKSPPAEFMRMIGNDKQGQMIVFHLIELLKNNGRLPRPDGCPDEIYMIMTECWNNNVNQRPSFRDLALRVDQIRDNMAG
Chain of EPHB2 (P29323 whole entry, looked up): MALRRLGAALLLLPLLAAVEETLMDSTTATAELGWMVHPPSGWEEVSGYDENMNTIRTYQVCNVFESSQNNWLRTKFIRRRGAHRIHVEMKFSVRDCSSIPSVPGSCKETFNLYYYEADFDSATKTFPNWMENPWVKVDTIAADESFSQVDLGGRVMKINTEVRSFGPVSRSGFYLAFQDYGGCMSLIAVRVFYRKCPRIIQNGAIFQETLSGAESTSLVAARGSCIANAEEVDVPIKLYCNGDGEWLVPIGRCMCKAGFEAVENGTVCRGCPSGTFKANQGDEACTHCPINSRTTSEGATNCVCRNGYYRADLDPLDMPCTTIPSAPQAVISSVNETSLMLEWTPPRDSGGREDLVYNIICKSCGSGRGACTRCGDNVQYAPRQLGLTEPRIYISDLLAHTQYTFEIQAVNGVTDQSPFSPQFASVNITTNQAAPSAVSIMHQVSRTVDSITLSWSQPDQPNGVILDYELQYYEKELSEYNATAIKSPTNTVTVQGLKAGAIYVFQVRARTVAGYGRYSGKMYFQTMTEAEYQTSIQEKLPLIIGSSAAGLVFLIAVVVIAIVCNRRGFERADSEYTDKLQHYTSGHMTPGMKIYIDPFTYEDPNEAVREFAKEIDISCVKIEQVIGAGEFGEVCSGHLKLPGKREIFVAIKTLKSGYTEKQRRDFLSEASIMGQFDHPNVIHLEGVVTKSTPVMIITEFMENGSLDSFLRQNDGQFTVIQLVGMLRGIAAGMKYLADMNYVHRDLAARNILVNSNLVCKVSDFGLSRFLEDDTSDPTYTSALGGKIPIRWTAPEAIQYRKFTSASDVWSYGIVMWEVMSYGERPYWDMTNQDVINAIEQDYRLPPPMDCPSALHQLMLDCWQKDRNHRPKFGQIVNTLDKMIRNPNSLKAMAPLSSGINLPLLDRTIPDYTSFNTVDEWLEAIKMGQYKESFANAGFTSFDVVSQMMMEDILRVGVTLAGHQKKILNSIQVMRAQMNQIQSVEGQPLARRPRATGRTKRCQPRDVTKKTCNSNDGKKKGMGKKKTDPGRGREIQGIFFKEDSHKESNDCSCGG

Sequence	phosphorylation enrichment (Jak2)	phosphorylation enrichment (Fer (mouse))	phosphorylation enrichment (Fyn)	phosphorylation enrichment (AncSZ)	phosphorylation enrichment (MERTK)	phosphorylation enrichment (c-Abl (mouse))	phosphorylation enrichment (Hck)	phosphorylation enrichment (c-Src)	phosphorylation enrichment (Fes)	phosphorylation enrichment (EPHB1)	phosphorylation enrichment (FGFR1)	phosphorylation enrichment (FGFR3)	phosphorylation enrichment (EPHB2)	SH2 binding enrichment (Grb2 SH2)	SH2 binding enrichment (SHP2-C SH2)	SH2 binding enrichment (c-Src SH2)
QKMADYSNKLH [PDPR_Y104_Y109H]	0.974	0.571	0.382	0.843	0.429	0.714	0.586	0.706	0.835	0.569	0.527	0.708	0.864	0.766	1.13	0.466
QLAPQYTFTQG [FLNA_Y1761_A1764T_YF]	1.21	0.58	1.09	1.27	1.1	1.49	0.748	1.12	1.09	0.621	0.918	0.982	0.845	0.915	0.5	0.635
QLAPQYTYAQG [FLNA_Y1761]	0.696	0.448	0.61	0.722	0.65	0.61	0.624	0.693	1.01	0.52	0.714	0.704	1.19	0.887	2.01	3.16
QLCVNYPGGYT [PROS1_Y259]	0.999	0.811	1	1.24	0.513	0.845	0.965	0.537	1.66	1.32	0.767	1.42	0.772	0.796	0.571	0.528
QLFGPYLRIHA [BSCL2_Y213_A212P_YF]	1.35	0.427	0.588	1.25	0.485	0.628	0.515	0.785	1.56	1.13	0.733	1.03	0.548	1.33	1.54	1.17
QLQTNYPSSDN [MAX_Y115]	0.773	0.551	0.476	0.951	0.657	1.02	0.527	0.628	1.14	0.583	0.642	0.725	0.766	0.752	0.513	0.546
QLRPGYFPIPV [BAG3_Y93_I94F]	0.981	0.42	0.536	0.6	0.531	0.53	0.466	0.423	0.679	0.448	0.593	0.56	0.585	0.697	0.906	0.475
QRASDYFSQQM [GBP6_Y333_A331S_YF]	1.02	0.667	0.662	1.29	0.711	1.28	0.866	0.632	1.49	1.56	0.684	1.39	0.854	0.668	0.964	0.464
QRHFVYFFSFL [PTEN_Y176_R173H_YF]	1.46	1.11	1.07	1.91	0.717	1.31	1.09	0.664	1.88	0.983	1.69	1.46	0.761	1.48	0.842	0.911
QRRYLYYYSYL [PTEN_Y176_V175L]	4.97	0.671	1.62	1.14	7.18	0.494	2.2	2.84	0.887	1.19	4.64	3.52	1.12	0.776	0.683	0.507
QRVLLYVRRET [GRHL3_Y518]	0.9	0.468	0.699	1.01	0.801	0.41	0.669	0.834	0.796	0.461	0.676	0.781	0.577	0.713	0.421	0.488
QSPQLYKQMCI [DARS1_Y253]	0.917	0.673	0.796	0.881	0.603	0.932	0.634	0.485	0.896	0.836	0.461	0.573	0.559	0.904	0.904	0.638
QTEAPYRFIFM [PTPN11_Y511_Q510P_YF]	1.55	4.48	0.637	1.34	0.595	1.34	0.645	0.777	1.34	0.728	2.71	1.98	0.626	0.662	0.751	0.367
QTWKTYVRHQQ [SFI1_Y164_Q167H]	1.3	0.465	0.476	0.901	0.49	1.36	0.486	0.769	1.29	0.548	0.535	2.21	0.509	1.38	0.946	0.784
QVMDGYPMPIG [MMP14_Y353]	0.987	0.53	0.564	0.861	0.906	1.03	0.601	0.517	0.964	0.673	0.529	0.629	0.511	0.675	0.423	0.572
QWQQLYDTLNA [EIF3M_Y351]	1.06	4.62	5.55	1.63	6.06	0.546	8.42	3.99	1.29	2.15	0.556	0.932	1.63	1.16	0.777	0.636
RAILLYEYVGK [NATD1_Y45_V42I]	2.34	26.3	11.2	3.29	19.1	2.4	15.5	11.1	7.22	33.9	4.68	5.74	46.9	1.56	1.25	1.55
